Conditions in all cases: both partners purified
Assay [1] has as its target T1, GST-PHD1 (S287-K347) of KDM5A (human, UniProt P29375 287-347).
T1 construct: PHD1 domain of histone demethylase KDM5A, human, residues S287-K347; Cloned into pET41a; the vector may add further tags (surmise); also called S287-K347 PHD1; GST-PHD1 (Ser287-Lys347); source: E. coli BL21(DE3), purified (Glutathione Sepharose 4B, Superdex 75 SEC); not shown: GST, N-terminal, kept
T1 sequence (looked up): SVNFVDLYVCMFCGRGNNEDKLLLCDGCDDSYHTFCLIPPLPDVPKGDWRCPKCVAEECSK
Briefly: fluorescence polarisation; competition-based FP: 2 µM GST-PHD1 with 10 nM C-terminal fluorescently labeled H3 peptide and different concentrations of unlabeled competitor peptide.

Assay [2] addresses T2, GST-PHD1 (V291-K347) of KDM5A (human, UniProt P29375 291-347).
T2 construct: PHD1 domain of histone demethylase KDM5A, human, residues V291-K347; Cloned into pET41a; the vector may add further tags (surmise); also called V291-K347 PHD1; PHD1_(KDM5A); source: E. coli BL21(DE3), purified (Glutathione Sepharose 4B, Superdex 75 SEC); not shown: GST, N-terminal, kept
T2 sequence (looked up): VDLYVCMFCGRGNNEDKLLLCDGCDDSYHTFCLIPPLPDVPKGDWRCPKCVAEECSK
The description is as above.

For assay [3], the target named is T3, GST-PHD1 (S287-K347) D292A of KDM5A (human, UniProt P29375 287-347, D292A).
T3 construct: PHD1 domain of histone demethylase KDM5A, human, residues S287-K347 with D292A; Cloned into pET41a; the vector may add further tags (surmise); also called S287-K347 PHD1 D292A; PHD1 D292A; source: E. coli BL21(DE3), purified (Glutathione Sepharose 4B, Superdex 75 SEC); not shown: GST, N-terminal, kept
T3 sequence (looked up): T1 sequence (looked up) with D6A
The assay is described as above.

The target in assay [4] is T4, KDM5A_(1-797) (human, UniProt P29375 1-797).
T4 construct: histone demethylase KDM5A, human, residues 1-797; Cloned into pFASTBAC HTA; the His tag was removed with TEV protease; also called WT KDM5A_(1-797); KMD5A; source: Sf21 (baculovirus), purified (cobalt resin, TEV cleavage, S200 SEC); not shown: His tag, N-terminal, cleaved
T4 sequence (looked up): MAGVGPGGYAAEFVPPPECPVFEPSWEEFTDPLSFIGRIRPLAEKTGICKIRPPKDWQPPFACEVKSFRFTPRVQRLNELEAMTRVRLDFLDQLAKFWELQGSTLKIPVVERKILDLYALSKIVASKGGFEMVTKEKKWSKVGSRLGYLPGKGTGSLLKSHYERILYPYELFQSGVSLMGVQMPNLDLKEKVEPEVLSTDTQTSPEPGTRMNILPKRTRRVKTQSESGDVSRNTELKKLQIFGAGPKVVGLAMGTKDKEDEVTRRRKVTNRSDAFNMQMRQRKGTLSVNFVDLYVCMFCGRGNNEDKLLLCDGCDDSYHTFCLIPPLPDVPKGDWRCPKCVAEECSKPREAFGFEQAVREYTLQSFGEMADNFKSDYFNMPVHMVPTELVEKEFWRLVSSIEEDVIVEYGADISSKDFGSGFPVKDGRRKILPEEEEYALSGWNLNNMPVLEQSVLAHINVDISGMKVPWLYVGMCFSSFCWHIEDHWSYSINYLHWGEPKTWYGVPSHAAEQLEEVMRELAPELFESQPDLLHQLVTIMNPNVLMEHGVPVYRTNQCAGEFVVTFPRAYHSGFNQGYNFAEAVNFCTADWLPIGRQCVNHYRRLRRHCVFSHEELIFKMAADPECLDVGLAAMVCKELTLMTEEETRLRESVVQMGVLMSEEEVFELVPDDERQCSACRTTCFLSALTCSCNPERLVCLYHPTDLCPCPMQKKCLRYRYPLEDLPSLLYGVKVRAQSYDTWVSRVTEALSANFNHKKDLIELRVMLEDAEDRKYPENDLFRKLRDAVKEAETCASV
The assay is described as follows: HDX-MS; KDM5A_(1-797) with 50 µM FeSO4 and 100 µM N-OG, with 100 µM H3 10mer effector peptide against apo; 40 mM HEPES, 50 mM KCl, pH 7.9, 4 °C.

Assay [5] has as its target T1, GST-PHD1 (S287-K347) of KDM5A. The assay is described as follows: fluorescence polarisation; direct FP: 10 nM C-terminal fluorescently labeled H3 peptide with varying concentrations of GST-PHD1.
In assay [6] the target is T2, GST-PHD1 (V291-K347) of KDM5A. The assay is described as above.
Assay [7] has as its target T3, GST-PHD1 (S287-K347) D292A of KDM5A. The assay is described as above.

Substitutions are numbered along the chain they refer to. Numbers in names are those of the source. Where no end group is shown, it is not given here. 5‑FAM = 5-carboxyfluorescein; Me3 = trimethyl-lysine

B1: H3K4me3 10mer peptide (peptide, UniProt P68431 2-11, looked up)
peptide: ARTK(Me3)QTARKS
notes: histone H3 N-terminal tail, 10mer Ala1-Ser10; also called tri-methylated H3K4 peptide
Regarding B1, the equilibrium dissociation constant (Kd) was 34 ± 5.5 µM in assay [1], 35.5 ± 7.5 µM in assay [2] and 511 ± 281 µM in assay [3].

B2: H3K4A 10mer peptide (peptide, UniProt P68431 2-11, looked up)
peptide: ARTAQTARKS
notes: histone H3 N-terminal tail, 10mer Ala1-Ser10 with K4A
B2: the Kd in assay [1] stood at 1.58 ± 0.19 µM; in assay [2] it was 2.11 ± 0.27 µM; in assay [3], 22.2 ± 5.7 µM.

B3: unmodified H3 10mer effector peptide (H3 Ala1-Ser10) (peptide, UniProt P68431 2-11, looked up)
peptide: ARTKQTARKS
notes: histone H3 N-terminal tail, 10mer Ala1-Ser10, unmodified, unlabelled; also called H3 10mer peptide; PHD1-specific H3 10mer peptide
Take B3: the binding result in assay [4] is on record as “binds”.

B4: 5-carboxyfluorescein (5-FAM) conjugated H3 10mer peptide (peptide, UniProt P68431 2-11, looked up)
peptide: ARTKQTARKS-{5‑FAM}
notes: histone H3 N-terminal tail, 10mer Ala1-Ser10, unmodified; also called H3K4me0; C-terminal fluorescently labeled H3 peptide
On to B4, for which the Kd was determined as 0.68 ± 0.04 µM in assay [5], 1.89 ± 0.16 µM in assay [6] and 5.2 ± 0.26 µM in assay [7].

The values above are taken from paper PMC6327041, “Histone H3 binding to the PHD1 domain of histone demethylase KDM5A enables active site remodeling” (Nature Communications, 2019).
